# Experimental data taken from patent US20240116985A1 (published 2024).
# Starred links: 1 amine or outer side, 2 acyl side, 3 side chain; linkers in the order of their positions; H or OH if unused. Positions of bridges follow the written chain, without caps; N, C: chain ends. Non-standard residues stand in square brackets, D forms with d. Primed or numbered codes have the meaning given here. *: point of attachment. PyrS2″ = (S)-3-amino-1-((pent-4-en-1-yloxy)carbonyl)pyrrolidine-3-carboxylic acid (stapling residue), C=CCCCOC(=O)N1CC[C@@](N[*:1])(C(=O)[*:2])C1; B5(4) = 2,2-bis(4-pentenyl)glycine = 2-amino-2-(pent-4-en-1-yl)hept-6-enoic acid (stitching residue), C=CCCCC(CCCC=C)(N[*:1])C(=O)[*:2]; (Me2NPrPip)GlnR″ = Glu side chain amide with 4-(3-(dimethylamino)propyl)piperazine, CN(C)CCCN1CCN(C(=O)CC[C@H](N[*:1])C(=O)[*:2])CC1; TfeGA = (S)-2-amino-3-((carboxymethyl)(2,2,2-trifluoroethyl)amino)propanoic acid, O=C([C@H](CN(CC(=O)[*:3])CC(F)(F)F)N[*:1])[*:2]; (EtSO2Ppz)GlnR = Glu side chain amide with 4-(ethylsulfonyl)piperazine, CCS(=O)(=O)N1CCN(C(=O)CC[C@H](N[*:1])C(=O)[*:2])CC1; (bismethoxyethylamine)GlnR″ = N5,N5-bis(2-methoxyethyl)-L-glutamine, COCCN(CCOC)C(=O)CC[C@H](N[*:1])C(=O)[*:2]; B5(3) = 2,2-bis(4-pentenyl)glycine (stitching residue), C=CCCCC(CCCC=C)(N[*:1])C(=O)[*:2]; Phe(3-COOH) = N[C@@H](Cc1cccc(C(=O)O)c1)C(=O)O; 2F3MeF = Cc1cccc(C[C@H](N[*:1])C(=O)[*:2])c1F; Phe(2-CF3) = N[C@@H](Cc1ccccc1C(F)(F)F)C(=O)O; Phe(2-Cl) = N[C@@H](Cc1ccccc1Cl)C(=O)O; Bta = N[C@@H](Cc1csc2ccccc12)C(=O)O; αAllylPro = C=CC[C@@]1(C(=O)O)CCCN1; tBuAla = CC(C)(C)C[C@H](N)C(=O)O; 3Thi = N[C@@H](Cc1ccsc1)C(=O)O; 2F3MeF(3) = Phe analogue; Abu = CC[C@H](N)C(=O)O; Aib = CC(C)(N)C(=O)O; Moc = COC(=O)*
# T1: Bcat-Halo (UniProt P35222 1-781)
# T1 sequence (looked up): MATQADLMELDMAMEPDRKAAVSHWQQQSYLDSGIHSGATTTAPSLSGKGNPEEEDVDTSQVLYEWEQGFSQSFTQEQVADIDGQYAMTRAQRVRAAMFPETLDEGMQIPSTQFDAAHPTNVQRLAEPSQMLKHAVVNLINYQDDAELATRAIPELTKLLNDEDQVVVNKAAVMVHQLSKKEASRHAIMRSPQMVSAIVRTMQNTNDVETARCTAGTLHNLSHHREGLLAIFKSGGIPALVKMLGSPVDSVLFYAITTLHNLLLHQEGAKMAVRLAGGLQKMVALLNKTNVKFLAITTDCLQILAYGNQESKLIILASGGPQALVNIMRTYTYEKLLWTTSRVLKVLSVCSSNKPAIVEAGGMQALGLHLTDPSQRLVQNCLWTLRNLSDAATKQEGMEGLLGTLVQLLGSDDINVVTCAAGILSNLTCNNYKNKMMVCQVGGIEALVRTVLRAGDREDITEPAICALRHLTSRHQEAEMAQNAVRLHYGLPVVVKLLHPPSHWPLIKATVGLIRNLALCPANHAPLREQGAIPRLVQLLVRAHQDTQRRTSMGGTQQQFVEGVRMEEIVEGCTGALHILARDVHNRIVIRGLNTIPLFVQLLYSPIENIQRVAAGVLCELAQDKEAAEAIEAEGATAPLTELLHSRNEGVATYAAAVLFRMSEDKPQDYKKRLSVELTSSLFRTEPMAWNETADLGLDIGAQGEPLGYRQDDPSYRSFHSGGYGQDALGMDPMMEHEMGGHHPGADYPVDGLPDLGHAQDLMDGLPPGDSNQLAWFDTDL
# T2: B-cat-Halo (beta-catenin HaloTag NanoBRET construct expressed in HEK293 cells) (UniProt P35222 1-781)
# T2 sequence (looked up): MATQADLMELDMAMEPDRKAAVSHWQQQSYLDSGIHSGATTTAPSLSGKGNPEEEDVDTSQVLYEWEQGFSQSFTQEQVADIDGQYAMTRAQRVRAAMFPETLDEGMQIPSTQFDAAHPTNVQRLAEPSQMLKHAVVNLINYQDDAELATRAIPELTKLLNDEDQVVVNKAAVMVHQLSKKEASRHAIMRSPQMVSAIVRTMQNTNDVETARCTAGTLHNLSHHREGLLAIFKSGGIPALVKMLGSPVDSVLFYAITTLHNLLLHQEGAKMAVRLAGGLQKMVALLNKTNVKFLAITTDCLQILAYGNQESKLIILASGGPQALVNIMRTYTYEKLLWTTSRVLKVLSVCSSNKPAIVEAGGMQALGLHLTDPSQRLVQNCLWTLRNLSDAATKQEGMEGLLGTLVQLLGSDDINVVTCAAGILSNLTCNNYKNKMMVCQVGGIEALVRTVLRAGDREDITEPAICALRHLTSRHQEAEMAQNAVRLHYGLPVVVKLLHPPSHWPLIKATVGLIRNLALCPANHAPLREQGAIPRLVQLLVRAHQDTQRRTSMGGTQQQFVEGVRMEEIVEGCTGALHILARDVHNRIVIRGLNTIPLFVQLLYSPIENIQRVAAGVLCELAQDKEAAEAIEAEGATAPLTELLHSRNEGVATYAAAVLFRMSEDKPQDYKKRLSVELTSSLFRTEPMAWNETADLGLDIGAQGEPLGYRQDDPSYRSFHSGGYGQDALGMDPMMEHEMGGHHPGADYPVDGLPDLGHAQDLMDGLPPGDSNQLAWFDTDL
# Biological target: T1, Bcat-Halo
# Assay: cell-based or functional assay
row,NanoBRET Abs IC50,Binder
1,14.8 µM,"Moc-[αAllylPro]D[tBuAla][B5(3)]D[Phe(3-COOH)]AAFL[PyrS2″][Phe(2-Cl)][Bta]A-NH2 (staple 1-4, 4-11) [I-2324]"
2,17.7 µM,"Ac-[αAllylPro]D[tBuAla][B5(4)]D[Phe(3-COOH)][(Me2NPrPip)GlnR″]AFL[PyrS2″][2F3MeF][Bta]A-NH2 (staple 1-4, 4-11) [I-2323]"
3,1.8 µM,"Ac-[αAllylPro]D[tBuAla][B5(4)]D[Phe(3-COOH)][(bismethoxyethylamine)GlnR″]AFL[PyrS2″][2F3MeF][Bta]A-NH2 (staple 1-4, 4-11) [I-2322]"
4,1.7 µM,"Ac-[αAllylPro]D[tBuAla][B5(4)]D[Phe(3-COOH)][(EtSO2Ppz)GlnR]AFL[PyrS2″][2F3MeF][Bta]A-NH2 (staple 1-4, 4-11) [I-2321]"
5,37 µM,"Ac-[αAllylPro]D[tBuAla][B5(3)]N[Phe(3-COOH)]AAFN[PyrS2″][3Thi][Bta]Q-NH2 (staple 1-4, 4-11) [I-2335]"

# Biological target: T2, B-cat-Halo (beta-catenin HaloTag …)
# Assay: cell-based or functional assay
row,NanoBRET Abs IC50,Binder
1,16.5 µM,"Ac-[αAllylPro]D[tBuAla][B5(3)]D[Phe(3-COOH)]AAFL[PyrS2″][Phe(2-CF3)][SbMe2NapA]Q-NH2 (staple 1-4, 4-11) [Ac-PL3-Asp-Npg-B5-Asp-3COOHF-Ala-Ala-Phe-Leu-PyrS2-2F3MeF-SbMe2NapA-Gln-NH2]"
2,2.1 µM,"Ac-[αAllylPro]D[tBuAla][B5(3)]D[TfeGA]AAFL[PyrS2″][3Thi][Bta][(NHEt)GlnR]A-NH2 (staple 1-4, 4-11) [Ac-PL3-Asp-Npg-B5-Asp-TfeGA-Ala-Ala-Phe-Leu-PyrS2-3Thi-BztA-[NHEt]GlnR-Ala-NH2]"
3,> 20 µM,"Ac-[αAllylPro]D[tBuAla][B5(3)]D[Phe(3-COOH)]AAFL[PyrS2″][Phe(2-CF3)][2F3MeW]Q-NH2 (staple 1-4, 4-11) [Ac-PL3-Asp-Npg-B5-Asp-3COOHF-Ala-Ala-Phe-Leu-PyrS2-2F3MeF-2F3MeW-Gln-NH2]"
4,6.5 µM,"Ac-[αAllylPro]D[tBuAla][B5(3)]D[Phe(3-COOH)]QAFL[PyrS2″][Phe(2-CF3)][RbMe2NapA]A-NH2 (staple 1-4, 4-11) [Ac-PL3-Asp-Npg-B5-Asp-3COOHF-Gln-Ala-Phe-Leu-PyrS2-2F3MeF-RbMe2NapA-Ala-NH2]"
5,> 20 µM,"Ac-[αAllylPro]D[tBuAla][B5(3)]D[Phe(3-COOH)]QAFL[PyrS2″][2F3MeF(3)][SbMe2NapA]A-NH2 (staple 1-4, 4-11) [Ac-PL3-Asp-Npg-B5-Asp-3COOHF-Gln-Ala-Phe-Leu-PyrS2-2F3MeF-SbMe2NapA-Ala-NH2]"
6,> 20 µM,"Ac-[αAllylPro]D[tBuAla][B5(3)]NT[Aib]AFN[PyrS2″][3Thi][Bta]K-NH2 (staple 1-4, 4-11) [Ac-PL3-Asp-Npg-B5-Asn-Thr-Aib-Ala-Phe-Asn-PyrS2-3Thi-BztA-Lys-NH2]"
7,> 20 µM,"Ac-[αAllylPro]D[tBuAla][B5(3)]NT[Aib]AFN[PyrS2″][3Thi][Bta]Y-NH2 (staple 1-4, 4-11) [Ac-PL3-Asp-Npg-B5-Asn-Thr-Aib-Ala-Phe-Asn-PyrS2-3Thi-BztA-Tyr-NH2]"
8,> 20 µM,"Ac-[αAllylPro]D[tBuAla][B5(3)]D[Phe(3-COOH)]QAFL[PyrS2″][Phe(2-CF3)][2F3MeW]A-NH2 (staple 1-4, 4-11) [Ac-PL3-Asp-Npg-B5-Asp-3COOHF-Gln-Ala-Phe-Leu-PyrS2-2F3MeF-2F3MeW-Ala-NH2]"
9,1.8 µM,"Ac-[αAllylPro]D[tBuAla][B5(3)]D[Phe(3-COOH)]AAF[Abu][PyrS2″][2F3MeF][Bta][(NHEt)GlnR]A-NH2 (staple 1-4, 4-11) [Ac-PL3-Asp-Npg-B5-Asp-3COOHF-Ala-Ala-Phe-Abu-PyrS2-2F3MeF-BztA-[NHEt]GlnR-Ala-NH2]"
